Reference: paper PMC3137634, “Concurrent Proinflammatory and Apoptotic Activity of a Helicobacter pylori Protein (HP986) Points to Its Role in Chronic Persistence” (PLoS ONE, 2011)

Target: T1, recombinant HP986 (Helicobacter pylori, UniProt O25636 1-237)
T1 construct: HP986 (HP0986), protein of unknown function from the plasticity zone of Helicobacter pylori; PCR product spanning 711 bp cloned at XhoI/HindIII of pRSETA; about 29 kDa; 711 bp would be 237 codons with the stop or without; also called rHP986; HP0986; source: E. coli BL21 (DE3), purified (Ni2+-NTA, size exclusion chromatography)
T1 sequence: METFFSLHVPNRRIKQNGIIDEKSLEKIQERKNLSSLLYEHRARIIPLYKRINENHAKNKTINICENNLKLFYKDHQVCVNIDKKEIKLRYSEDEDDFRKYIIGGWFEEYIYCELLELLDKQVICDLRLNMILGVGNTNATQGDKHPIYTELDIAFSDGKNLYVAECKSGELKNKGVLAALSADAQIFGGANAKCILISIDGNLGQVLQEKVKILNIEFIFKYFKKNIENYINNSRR
Experiment: SPR; BIAcore 3000; human TNFR1/Fc amine-coupled to a CM5 chip up to 150 RU; rHP986 at 100, 400, 800 and 1200 nM in PBS, 30 µl/min; 1:1 Langmuir model
Conditions: both partners purified

B1: Human TNFR1/Fc (Fc fusion, UniProt P19438 30-211, looked up)
chain: LVPHLGDREKRDSVCPQGKYIHPQNNSICCTKCHKGTYLYNDCPGPGQDTDCRECESGSFTASENHLRHCLSCSKCRKEMGQVEISSCTVDRDTVCGCRKNQYRHYWSENLFQCFNCSLCLNGTVHLSCQEKQNTVCTCHAGFFLRENECVSCSNCKKSLECTKLCLPQIENVKGTEDSGTT
notes: soluble human TNFR1 (tumor necrosis factor receptor 1) fused to Fc; Commercial TNFR1/Fc chimeras usually hold the extracellular domain joined to human IgG1 Fc at the C-terminus; also called soluble humanTNFR1; hu TNFR1; source: bought: Sigma, USA
- koff: 0.000908 s⁻¹
- kon: 12600 M⁻¹ s⁻¹
